Data from patent US20180327462A1.

Target: SH2-GFP-tail substrate with the SH2 domain of human Abl1 (human; yeast) (UniProt P00519)
Assay: cell-based or functional assay

UniProt P00519, sequence (P00519 other isoform, or with tags, fused parts or gaps, form in doubt): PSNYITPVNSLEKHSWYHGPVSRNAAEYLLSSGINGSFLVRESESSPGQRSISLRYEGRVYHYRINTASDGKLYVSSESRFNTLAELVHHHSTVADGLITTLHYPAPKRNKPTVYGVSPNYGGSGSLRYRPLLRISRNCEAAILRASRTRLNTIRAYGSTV

Row | Substance | substrate amount in cell lysate (SDS-PAGE, Typhoon fluorescence, ImageJ) [fold] | substrate turnovers per degradon molecule (10 nM degradon, varied substrate, GFP fluorescence) [times]
1 | FLAG-hUbL-mB^HA4 (binding degradon; human Rad23b UbL domain fused N-terminally to the HA4 monobody) (from UniProt P54727 1-83) (designed binder) | 4 | 
2 | UbL-mB^HA4 degradon (yeast Rad23 UbL domain fused N-terminally to the HA4 monobody) (from UniProt P32628 1-77) (designed binder) |  | 5
